The supplement of paper PMC9170038

System: K4 kissing-loop RNA reporter
Experiment: apparent KD of K4 kissing-loop reporter; higher = weaker reporter binding
Conditions: Eterna round: R107
Description: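 RNA-MaP round R107: designed RNA switches with theophylline, tryptophan, arginine or FMN aptamers are transcribed on-chip within common flanks. They are titrated with a labelled K4 kissing-loop RNA reporter in RNA-MaP buffer (100 mM Tris pH 7.5, 80 mM KCl, 4 mM MgCl2), without ligand or with the indicated ligand. Median apparent KD per design.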

[1] = input ligand: theophylline 20 uM
[2] = input ligand: tryptophan 2.4 mM
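Note: bound reporter read as fluorescence of individual clusters on recovered sequencing chips by microscopy, with normalized cluster intensities fitted with a binding model.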

Row | Sequence | apparent KD of K4 kissing-loop reporter (input ligand: FMN 200 uM) | apparent KD of K4 kissing-loop reporter (input ligand: arginine 13.2 mM) | apparent KD of K4 kissing-loop reporter (input ligand: none) | apparent KD of K4 kissing-loop reporter [1] | apparent KD of K4 kissing-loop reporter [2]
1 | AUUUGUUUAUGUGAUACCAGACUAAGCAGUGAUGUUGCUUUUAUUUUUGAAUUUUAAAUAGUCCCUUGGCAGCACUAUGUCUGUA [#05 K4 Theophylline B Same State] | 96.4 nM | 147 nM | 135 nM | 161 nM | 94.2 nM
2 | AUUUUGGUUGAGAGUGAUGUUCCUUGUGUUCGAGGACCGGUACGGCCGCCACUCGGGUAGAAAAUAAAAGAAAUGUUUGAUUUUU [BDazzled - #11 SS Tryptophan A] | 242 nM | 86.1 nM | 157 nM | 143 nM | 215 nM
3 | AUUUUUUACAGAAGGAGCGUGUUAUAAUAAUCAUAUUGCUUAGCGAGUGAUGUUCGCUUUACACAGGUAGGUCGCUGUUUAUUUA [JR_Nu_ExcArginiB_Sub029] | 167 nM | 168 nM | 176 nM | 180 nM | 151 nM
4 | AUUUUUUUGUCAGGAUAUUAGUGUGGGUUUGGUUUGUUAGUGAUGUUGAUAUUUGUUUUAUGUAUUUAAGAAGGGAUUUAGCGGU [zzdxemullin] | 556 nM | 330 nM | 431 nM | 443 nM | 285 nM
5 | CAAAUAAAUAUAAUUGAUAAGUGAUGUUGGCGAGGACCGGUACGGCCGCCACUCGAUAUCGGUCCAUUAACCGAGUGAUGUUUGG [Default title] | 102 nM | 58.9 nM | 81.1 nM | 67.4 nM | 83.7 nM
6 | CAAUGAAUAUAAGAUGAUAUCAUAACAGAAGGAGCGAGUGAUAACUCAGGUAGGUCGCUGAAUUUAUCGAGUGAUGUUCGAUAAA [Same State Arginine A GF10] | 208 nM | 158 nM | 197 nM | 176 nM | 183 nM
7 | CACCAUGAAUUCUCUAGGAGUGAUGUUUUUCGAGGACCGGUACGGCCGCCACUCGGACGAGGACCGUGGGAGCGGCGAAAAGACU [ghgmullin] | 206 nM | 225 nM | 329 nM | 152 nM | 309 nM
8 | CACCCUAGUUCAGAUACCAGACUAGAGACAGUGAUGUUGUCACAUCCUAAAUUGGGUGUAGUCCCUUGGCAGCUGAGUAAUCUGC [Theo B/Ex/SS double] | 600 nM | 635 nM | 724 nM | 596 nM | 540 nM
9 | CACGUUUACCAAGGAUAUGGUCUGCCGCGGAACCGUUCAAGUGAUGUUUGAUUCGAGUAUUAAUCUCCAGAAGGUGGUAGUACAG [theeternabot_exclusion_KL_FMN_B_6] | 247 nM | 353 nM | 417 nM | 476 nM | 342 nM
10 | CAGAACUUGUAUAUAGGGUAUAUAAGAGAUACCAGUCAAAUUAAAGACCCUUGGCAGCUCAGGCGAGUGAUGUUCGCAGGCUAAC [Exclusion Theophylline A GF 17] | 112 nM | 111 nM | 113 nM | 133 nM | 91.1 nM
11 | CAGCAUCAGGUUCAAACUGCAUGUACUGAUACCAGUCUUAAGAUCGACCCUUGGCAGCAGCUCCCGAGUGAUGUUCGUAGCGAGC [theeternabot_exclusion_KL_Theo_A_41] | 362 nM | 339 nM | 356 nM | 401 nM | 336 nM
12 | CAGCGGAGUGAUGUUCUGCUUACUGCGGAUACCAGCUUCGCCAGAGGCCCUUGGCAGCCGGGCGGCUCAGUGAUGUUGGGUUGCU [Same State Theophylline A GF 15] | 536 nM | 559 nM | 876 nM | 920 nM | 664 nM
13 | CAGUUCCGUAGUGAUGUUACGAUCUCUGAUACCAGACAACUCUAAGUCCCUUGGCAGCAGUCAUUUUGCUUAAUAUUUACUCAAA [#08 K4 Theophylline A Exclusion] | 126 nM | 139 nM | 136 nM | 170 nM | 116 nM
14 | CAUACGCAUGGAGGAUAUGAGAAUUCUCAUGUCAUUUAAUAUUCUCAGUGAUGUUGAGGAUGUGGCUCAGAAGGCCAUGUGUAUG [Ex FMN B 21] | 205 nM | 325 nM | 423 nM | 366 nM | 379 nM
15 | CAUUCUAUAUGCAGUGAUGUUGCAACUGAUACCAGUAUCGAAAGAUACCCUUGGCAGCGGAAAACCGCUACGUAAUUUAAGAAUG [Ex Theophylline A K4 22] | 375 nM | 445 nM | 489 nM | 523 nM | 327 nM
16 | CCACAAUAUGGAAGGAGCGCCAGUGAUGUUGGUGCUUGCUUUAGGUAAGACCGGCCUAUUUGGCAGGUAGGUCGCCAUAUUCAAC [Ageat] | 103 nM | 89.5 nM | 97.7 nM | 89 nM | 97.2 nM
17 | CCAGAAUGAUGAGGAUGAUAAAUUACUGAAGGAGCGCAUAUAGUUGCAGGUAGGUCGCGGUGAAUAAGUAUAGUGAUGUUAUACC [SSArgA.Ab] | 595 nM | 327 nM | 314 nM | 322 nM | 341 nM
18 | CCAGGAUGAUGAGGAUGAUAAAUUACUGAAGGAGCGCAUAUAGUUGCAGGUAGGUCGCGGUGAAUAAGUAUAGUGAUGUUAUACC [SSArgA.Aa] | 379 nM | 263 nM | 309 nM | 360 nM | 301 nM
19 | CCCGCGGCGGGAAACCGUCGCGGGAAGGAAGGAGCGGCGAAGAAGCCAGGUAGGUCGCCUAUUGACAGUGAUGUUGUUAUAUAGA [#11] | 226 nM | 263 nM | 160 nM | 292 nM | 179 nM
20 | CCCGUUGCGGCGGCCGCCACUGACUUAUUGAUUAGGUUGCCAGUGAUGUUGGCCACCGGUCAAUACAGGACCGGGCCAUAGCGGG [Ceisreatte] | 157 nM | 124 nM | 128 nM | 134 nM | 99.1 nM
21 | CCCUAUAUAUGCAGUGAUGUUGCAACUGAUACCAGUAUCGAAAGAUACCCUUGGCAGCGGAAAACCGCUACGUAAUUUAAUAGGG [Ex Theophylline A K4 21] | 384 nM | 422 nM | 419 nM | 461 nM | 265 nM
